In paper PMC10937111, “Structural basis for intra- and intermolecular interactions on RAD9 subunit of 9-1-1 checkpoint clamp implies functional 9-1-1 regulation by RHINO” (The Journal of Biological Chemistry, 2024):
Where a chain is given by its changes, count along the chain named. Numbers in names are those of the source.

T1: FLAG-tagged 9^ΔC-1-1 (9-1-1 ring), wild type (human, UniProt Q99638 1-272; O60671 1-282; O60921 1-280)
T1 construct: RAD9 with the C-tail truncated (RAD9^ΔC), human, residues 1-272, from pFastBac1-FLAG-RAD9^ΔC; RAD1 subunit of 9-1-1; HUS1 subunit of 9-1-1; also called 9^ΔC-1-1 (W); purified 9^ΔC-1-1; copies: + +
T1 sequence (looked up) 1: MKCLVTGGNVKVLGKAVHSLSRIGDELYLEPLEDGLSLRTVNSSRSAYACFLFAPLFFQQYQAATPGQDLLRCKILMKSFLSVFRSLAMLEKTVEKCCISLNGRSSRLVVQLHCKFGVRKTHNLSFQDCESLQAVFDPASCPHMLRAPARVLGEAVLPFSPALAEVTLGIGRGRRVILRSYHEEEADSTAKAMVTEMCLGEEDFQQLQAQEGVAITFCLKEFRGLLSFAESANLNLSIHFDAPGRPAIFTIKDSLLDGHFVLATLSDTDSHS
T1 sequence (looked up) 2: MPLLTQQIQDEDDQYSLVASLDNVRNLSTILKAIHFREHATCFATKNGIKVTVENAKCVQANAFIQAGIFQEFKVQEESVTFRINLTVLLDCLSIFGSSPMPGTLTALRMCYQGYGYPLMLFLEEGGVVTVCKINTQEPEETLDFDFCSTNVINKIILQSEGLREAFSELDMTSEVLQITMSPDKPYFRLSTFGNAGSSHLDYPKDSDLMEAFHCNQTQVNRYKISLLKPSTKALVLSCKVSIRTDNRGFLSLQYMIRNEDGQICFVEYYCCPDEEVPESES
T1 sequence (looked up) 3: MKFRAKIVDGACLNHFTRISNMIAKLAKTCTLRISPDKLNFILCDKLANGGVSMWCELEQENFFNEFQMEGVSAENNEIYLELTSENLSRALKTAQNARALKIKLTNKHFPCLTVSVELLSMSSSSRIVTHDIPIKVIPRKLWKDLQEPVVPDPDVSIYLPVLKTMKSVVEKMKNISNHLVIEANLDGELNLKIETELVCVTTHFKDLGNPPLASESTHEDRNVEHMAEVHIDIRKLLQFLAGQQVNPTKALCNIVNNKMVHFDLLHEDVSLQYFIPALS

T2: recombinant human 9-1-1 ring for crystallization (RAD9 residues 1-270, His-HUS1, RAD1 F64A/M256A/F266A) (human, UniProt Q99638 1-270; O60671 1-282; O60921 2-280, F64A | M256A | F266A)
T2 construct: C-terminal truncated RAD9, human, residues 1-270; RAD1, human, with the triple substitutions F64A/M256A/F266A; HUS1, human; source: E. coli BL21(DE3), co-expressed, purified (HiTrap Heparin, HiTrap Q, HiLoad Superdex200); copies: + +
T2 sequence 1: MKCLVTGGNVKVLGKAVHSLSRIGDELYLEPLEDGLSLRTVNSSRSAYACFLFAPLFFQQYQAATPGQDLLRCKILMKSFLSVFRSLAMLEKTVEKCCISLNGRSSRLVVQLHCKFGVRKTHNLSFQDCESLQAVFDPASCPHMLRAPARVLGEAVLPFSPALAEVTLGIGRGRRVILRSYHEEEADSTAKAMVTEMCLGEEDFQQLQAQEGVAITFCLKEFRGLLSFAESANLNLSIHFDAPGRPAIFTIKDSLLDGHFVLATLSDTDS
T2 sequence 2: T1 sequence (looked up) 2 with F64A, M256A, F266A
T2 sequence 3: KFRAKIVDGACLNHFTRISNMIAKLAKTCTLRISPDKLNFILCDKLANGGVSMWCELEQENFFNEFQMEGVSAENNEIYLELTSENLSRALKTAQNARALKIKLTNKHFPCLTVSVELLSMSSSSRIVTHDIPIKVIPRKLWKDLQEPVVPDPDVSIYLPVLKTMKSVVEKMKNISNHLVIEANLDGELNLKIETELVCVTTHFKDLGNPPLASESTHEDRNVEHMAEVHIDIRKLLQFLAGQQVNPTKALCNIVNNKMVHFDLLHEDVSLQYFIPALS

B1: GST-RAD9C15 F361A (peptide, UniProt Q99638 356-370, looked up)
chain: PPPKKARSLFFGSIL
notes: RAD9, human, residues 356-370 of the C-tail, F361A; source: E. coli Rosetta 2(DE3)pLysS, from cell lysate immobilised on Glutathione-Sepharose 4B beads and washed
B2: GST-RAD9C15 F365A (peptide, UniProt Q99638 356-370, looked up)
chain: PPPKKFRSLAFGSIL
notes: RAD9, human, residues 356-370 of the C-tail, F365A; source: E. coli Rosetta 2(DE3)pLysS, from cell lysate immobilised on Glutathione-Sepharose 4B beads and washed
B3: GST-p21CT FY (F150A/Y151A) (domain or fragment, human, UniProt P38936 87-164, looked up)
chain: DELGGGRRPGTSPALLQGTAEEDHVDLSLSCTLVPRSGEQAEGSPGGPGDSQGRKRRQTSMTDAAHSKRRLIFSKRKP
notes: p21, C-terminal region, residues 87-164, F150A/Y151A in the PIP-box; also called p21CT variant with the F150A/Y151A double substitution in the PIP-box; source: E. coli Rosetta 2(DE3)pLysS, from cell lysate immobilised on Glutathione-Sepharose 4B beads and washed
B4: GST-tagged RAD9 (residues 356-370) (GST-RAD9C15), wild type (peptide, UniProt Q99638 356-370, looked up)
chain: PPPKKFRSLFFGSIL
notes: RAD9, human, residues 356-370 of the C-tail; source: E. coli Rosetta 2(DE3)pLysS, from cell lysate immobilised on Glutathione-Sepharose 4B beads and washed
B5: GST-tagged p21 C-terminal region (residues 87-164) (GST-p21CT), wild type (domain or fragment, human, UniProt P38936 87-164, looked up)
chain: B3 chain with A64F, A65Y
notes: p21, C-terminal region carrying the PIP-box, residues 87-164; also called p21 (W); source: E. coli Rosetta 2(DE3)pLysS, from cell lysate immobilised on Glutathione-Sepharose 4B beads and washed
B6: human RHINO peptide (88-TSKFPHLTFESP-99) (peptide)
peptide: TSKFPHLTFESP
notes: also called RHINO (residues 88-99); source: synthetic peptide (TORAY Research Center, Inc)

Biological target: T1, FLAG-tagged 9^ΔC-1-1 (9-1-1 ring), wild …
Test: pull-down; GST or GST-fusion proteins from E. coli lysate immobilised on Glutathione-Sepharose 4B beads and washed four times; incubated with purified PCNA, FLAG-tagged 9^ΔC-1-1 (W) or its LVF mutant for 2 h at 4 °C in 25 μl of buffer H (25 mM HEPES-NaOH pH 7.8, 150 mM NaCl, 1 mM EDTA, 10% glycerol, 0.01% NP-40); immunoblotting with anti-RAD1 or anti-PCNA antibody
Conditions: both partners purified

Binding result, binds:
B1
B2
B3
B4
B5

Biological target: T2, recombinant human 9-1-1 ring for …
Test: crystal structure; 0.13 mM 9-1-1 ring incubated with about 10-fold molar excess of the RHINO peptide at 277 K overnight; vapor diffusion, 0.2 M potassium iodine, 14% PEG 3350, 293 K; 2.81 Å
Conditions: both partners purified

Binding result, binds:
B6
